In the data set the test system is C=C(OP(=O)(O)O)C(=O)O. The experiment in a line: purified protein, by the assay type. Particulars: other: C. crescentus EPSPS, 50 mM K+-HEPES pH 7.0, 1 mM shikimate-3-phosphate, varying [14C]PEP.

Consider one substance from patent publication US20090209427A1, “Microbial glyphosate resistant epsps” (priority 2004, published 2009).

On to “Caulobacter crescentus EPSPS, native, SEQ ID NO: 9 (Caulobacter vibrioides CB15)”, for which the Km worked out at 2.0 µM.
